Assay results: paper PMC9852587

Biological target: His-SYMREM1 (Medicago truncatula)
Experiment: SEC; analytical gel filtration of fresh recombinant His-SYMREM1, calibrated with standard proteins; apparent molecular weight compared with the calculated size of a dimer

stoichiometry N: 2
Substance: His-SYMREM1 (natural protein)
